Measurements published in patent publication US20230059836A1 (NANJING LEGEND BIOTECH, published 2023).

What was measured:
[1] = biological target: human PD-1 expressed on CHO cells (human, UniProt Q15116 25-288); experiment: cell-based or functional assay
[2] = biological target: CTLA-4-Fc (GenScript, Z03373-50) (UniProt P16410 36-161); experiment: cell-based or functional assay
Chain of CTLA-4-Fc (GenScript, Z03373-50) (P16410 36-161 limits assumed, one chain of several): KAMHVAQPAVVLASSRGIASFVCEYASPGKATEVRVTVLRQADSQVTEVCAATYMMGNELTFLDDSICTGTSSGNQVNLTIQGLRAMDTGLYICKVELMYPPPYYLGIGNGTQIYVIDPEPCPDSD

Chain of human PD-1 expressed on CHO cells (Q15116 25-288): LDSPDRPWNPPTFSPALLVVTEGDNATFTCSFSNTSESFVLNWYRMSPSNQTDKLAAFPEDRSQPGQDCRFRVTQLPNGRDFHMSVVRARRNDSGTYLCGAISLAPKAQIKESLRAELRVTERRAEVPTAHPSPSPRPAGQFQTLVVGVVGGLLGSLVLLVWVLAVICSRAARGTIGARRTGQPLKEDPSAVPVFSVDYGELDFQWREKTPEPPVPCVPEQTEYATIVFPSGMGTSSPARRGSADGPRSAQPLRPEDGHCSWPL

| Binder | EC50 (nM), NFAT luciferase, PD-1/NFAT Reporter-Jurkat cells with CHO-K1 expressing human PD-L1 and TCR activator [1] [nM] | EC50 (nM), IL-2 secretion, CD4+ T cells with CHO-K1/human CD80 and CTLA-4-Fc [2] [nM] |
| --- | --- | --- |
| BCP-73 (bispecific antibody) chain 1: not shown chain 2: EIVLTQSPATLSLSPGERATLSCRASKGVSTSGYSYLHWYQQKPGQAPRLLIYLASYLESGVPARFSGSGSGTDFTLTISSLEPEDFAVYYCQHSRDLPLTFGGGTKVEIKRTVAAPSVFIFPPSDEQLKSGTASVVCLLNNFYPREAKVQWKVDNALQSGNSQESVTEQDSKDSTYSLSSTLTLSKADYEKHKVYACEVTHQGLSSPVTKSFNRGEC | 1.6 | 12.1 |
| BCP-74 (bispecific antibody) chain 1: not shown chain 2: EIVLTQSPATLSLSPGERATLSCRASKGVSTSGYSYLHWYQQKPGQAPRLLIYLASYLESGVPARFSGSGSGTDFTLTISSLEPEDFAVYYCQHSRDLPLTFGGGTKVEIKRTVAAPSVFIFPPSDEQLKSGTASVVCLLNNFYPREAKVQWKVDNALQSGNSQESVTEQDSKDSTYSLSSTLTLSKADYEKHKVYACEVTHQGLSSPVTKSFNRGEC | 4.3 | 14.3 |
| BCP-75 (bispecific antibody) chain 1: not shown chain 2: EIVLTQSPATLSLSPGERATLSCRASKGVSTSGYSYLHWYQQKPGQAPRLLIYLASYLESGVPARFSGSGSGTDFTLTISSLEPEDFAVYYCQHSRDLPLTFGGGTKVEIKRTVAAPSVFIFPPSDEQLKSGTASVVCLLNNFYPREAKVQWKVDNALQSGNSQESVTEQDSKDSTYSLSSTLTLSKADYEKHKVYACEVTHQGLSSPVTKSFNRGEC | 5.5 | 12.1 |
| BCP-78 (bispecific antibody) chain 1: EVQLVESGGGVVQPGRSLRLSCAASGRTITTITMGWFRQAPGKGREFVASHSWTDNNPYYADSVKGRFTISRDNAKNTLYLQMNSLRPEDTAVYYCAATARRSFVGRQWYTEARQYDYWGQGTLVTVSSEPKSSDKTHTSPPSPQVQLVESGGGVVQPGRSLRLDCKASGITFSNSGMHWVRQAPGKGLEWVAVIWYDGSKRYYADSVKGRFTISRDNSKNTLFLQMNSLRAEDTAVYYCATNDDYWGQGTLVTVSSASTKGPSVFPLAPCSRSTSESTAALGCLVKDYFPEPVTVSWNSGALTSGVHTFPAVLQSSGLYSLSSVVTVPSSSLGTKTYTCNVDHKPSNTKVDKRVESKYGPPCPPCPAPEFLGGPSVFLFPPKPKDTLMISRTPEVTCVVVDVSQEDPEVQFNWYVDGVEVHNAKTKPREEQFNSTYRVVSVLTVLHQDWLNGKEYKCKVSNKGLPSSIEKTISKAKGQPREPQVYTLPPSQEEMTKNQVSLTCLVKGFYPSDIAVEWESNGQPENNYKTTPPVLDSDGSFFLYSRLVDKSRWQEGNVFSCSVMHEALHNHYTQKSLSLSLGK chain 2: not shown | 8.9 | 8.4 |
